In the assay the target is T1, p62 ZZ domain (aa 115-190) (human, UniProt Q13501 115-190).
T1 construct: p62/SQSTM1 ZZ domain, human, aa 115-190; uniformly 15N-labeled for NMR; unlabeled for MST; also called p62_(ZZ (115-190)); source: E. coli BL21 (DE3) RIL, purified (glutathione Sepharose, size exclusion)
The assay is described as follows: MST; displacement assay: unlabeled peptide added to a preformed complex of 40 uM ZZ (aa 115-190) and 80 nM FAM-labeled peptide; Ki from IC50, called Kd in the text; 10 mM HEPES pH 7.4, 150 mM NaCl, 1 mM TCEP; triplicates. As to conditions: both partners purified.

The record followed here is publication PMC6197226, “ZZ-dependent regulation of p62/SQSTM1 in autophagy” (Nature Communications, 2018).

B1: K100EKKECRRDHR110 (p62_(100-110)) peptide (peptide)
peptide: KEKKECRRDHR
notes: p62/SQSTM1 regulatory linker between PB1 and ZZ, aa 100-110; also called RL peptide; RL; source: synthetic peptide (SynPeptide or KE BioChem)
Consider B1, for which the Kd (usually the concentration at which binding is half-saturated) worked out at 320 µM.
